Experimental data taken from article PMC7949057 (2021).
Changes are numbered by the printed parent chain. Names may count otherwise.

B1: Recombinant human MANF protein (natural protein)
chain: LRPGDCEVCISYLGRFYQDLKDRDVTFSPATIENELIKFCREARGKENRLCYYIGATDDAATKIINEVSKPLAHHIPVEKICEKLKKKDSQICELKYDKQIDLSTVDLKKLRVKELKKILDDWGETCKGCAEKSDYIRKINELMPKYAPKAASARTDL
B2: Recombinant MANF E153A mutant protein (natural protein)
chain: B1 chain with E132A

Legend:
[1] = biological target: T1, Recombinant hamster GRP78 protein (hamster, UniProt G3I8R9 19-654, RED-tris-NTA dye held on the His-tag); test: MST
T1 sequence (G3I8R9 19-654): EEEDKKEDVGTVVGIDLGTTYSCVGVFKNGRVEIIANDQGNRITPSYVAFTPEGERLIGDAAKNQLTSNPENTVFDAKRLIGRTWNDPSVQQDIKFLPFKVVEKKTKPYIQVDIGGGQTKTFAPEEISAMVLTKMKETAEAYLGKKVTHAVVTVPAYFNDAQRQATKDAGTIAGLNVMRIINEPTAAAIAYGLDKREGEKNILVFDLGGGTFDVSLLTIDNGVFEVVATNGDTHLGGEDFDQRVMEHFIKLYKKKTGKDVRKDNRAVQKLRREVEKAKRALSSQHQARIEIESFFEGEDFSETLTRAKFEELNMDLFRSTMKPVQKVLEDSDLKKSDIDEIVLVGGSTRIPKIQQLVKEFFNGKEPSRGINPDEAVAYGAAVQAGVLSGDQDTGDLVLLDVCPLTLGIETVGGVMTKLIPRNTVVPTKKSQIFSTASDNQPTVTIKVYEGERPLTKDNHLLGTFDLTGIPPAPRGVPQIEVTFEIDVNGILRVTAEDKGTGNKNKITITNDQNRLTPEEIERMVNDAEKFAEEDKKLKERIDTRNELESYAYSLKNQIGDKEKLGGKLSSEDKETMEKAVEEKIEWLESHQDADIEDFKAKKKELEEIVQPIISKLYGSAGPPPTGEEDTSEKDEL

[2] = biological target: T1, Recombinant hamster GRP78 protein; test: MST; 200 uM CaCl2
[3] = biological target: Substrate-binding domain (SBD) of GRP78 (RED-tris-NTA dye held on the His-tag); test: MST
Sequence of Substrate-binding domain (SBD) of GRP78 (RED-tris-NTA dye held on the His-tag) (chain, as listed by the source): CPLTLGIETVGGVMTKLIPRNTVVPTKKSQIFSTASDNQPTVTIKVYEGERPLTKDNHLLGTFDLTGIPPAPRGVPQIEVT

[4] = biological target: T1, Recombinant hamster GRP78 protein; test: MST; 1 uM CaCl2
[5] = biological target: T1, Recombinant hamster GRP78 protein; test: MST; 100 uM CaCl2

Binder	Kd [1]	Kd [2]	Kd [3]	Kd [4]	Kd [5]
B1	216 nM	430 nM	1400 nM	570 nM	500 nM
B2	269 nM				
